Consider 8 substances from article PMC9426574.

The target in assay [1] is His-tagged TdfJ K261P/R262P (purified) (Neisseria gonorrhoeae). The assay can be described thus: SPR; His-tagged TdfJ (89 μg/mL) immobilised on Ni-NTA sensor chip, free NTA blocked with His-tagged streptavidin; S100A7 injected at 1, 10, 50, 100, 500 nM, 20 μL/min; PBS pH 8.0; OpenSPR XT; steady-state, single-site fit (EC50 analysis setting).
Assay [2] deals with His-tagged wild-type TdfJ (purified) (Neisseria gonorrhoeae). Described as above.
Assay [3] addresses HRP-labeled human S100A7 (UniProt P31151). Kind of assay: ELISA. The conditions noted are these: His-tagged TdfJ on NTA-coated 96-well plate; absorbance at 450 nm; parent: est. 100; read off a plot.
Assay [4] deals with transferrin (Homo sapiens) (UniProt P02787). The conditions noted are these: cited from earlier work.
UniProt P02787, sequence (P02787 20-698): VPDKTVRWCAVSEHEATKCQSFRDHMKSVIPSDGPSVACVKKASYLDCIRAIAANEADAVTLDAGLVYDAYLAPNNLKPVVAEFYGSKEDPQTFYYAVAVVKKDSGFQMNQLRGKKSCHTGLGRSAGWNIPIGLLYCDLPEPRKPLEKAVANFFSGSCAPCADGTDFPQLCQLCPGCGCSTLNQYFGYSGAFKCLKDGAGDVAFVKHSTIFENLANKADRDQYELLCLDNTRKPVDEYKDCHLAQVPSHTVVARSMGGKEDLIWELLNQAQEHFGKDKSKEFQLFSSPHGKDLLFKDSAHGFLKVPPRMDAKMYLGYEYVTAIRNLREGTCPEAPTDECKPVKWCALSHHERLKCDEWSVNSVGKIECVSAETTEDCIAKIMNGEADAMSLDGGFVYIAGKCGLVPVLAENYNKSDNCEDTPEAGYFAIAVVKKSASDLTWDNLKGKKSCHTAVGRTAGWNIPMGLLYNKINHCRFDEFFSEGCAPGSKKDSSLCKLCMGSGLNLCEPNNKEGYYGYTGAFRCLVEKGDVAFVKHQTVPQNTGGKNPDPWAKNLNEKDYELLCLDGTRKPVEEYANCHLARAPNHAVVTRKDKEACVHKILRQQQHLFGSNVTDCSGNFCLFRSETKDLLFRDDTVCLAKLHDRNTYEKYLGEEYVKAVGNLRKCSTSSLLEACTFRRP

In turn, “Human S100A7 (from UniProt P31151 1-101) (natural protein)” registered an SPR response at equilibrium at 500 nM S100A7 in assay [1] of 325 RU. In assay [2], the Kd is 41 nM, the SPR response at 1 nM S100A7 is 220 RU and the SPR response at 500 nM S100A7 stood at 900 RU. In the case of “His-tagged wild-type TdfJ (purified) Q265P”, the percent of parent (% of Wildtype) in assay [3] amounted to 80. Consider “His-tagged wild-type TdfJ (purified) Q265P; L266P”, for which, in assay [3], the percent of parent (% of Wildtype) came to 20. Take “His-tagged wild-type TdfJ (purified) R262P”: the percent of parent (% of Wildtype) in assay [3] is 79.

As to “His-tagged wild-type TdfJ (purified) L266P”, in assay [3], the percent of parent (% of Wildtype) was 74. For “His-tagged wild-type TdfJ (purified) K261P; R262P”, the percent of parent (% of Wildtype) in assay [3] is 3. For the substance TbpA (from UniProt Q01996), the Kd in assay [4] was 10 nM. Take “His-tagged wild-type TdfJ (purified) K256E”: in assay [3], the percent of parent (% of Wildtype) is 87.
